Measured values: patent US20050260166 (Phytovation B.V., published 2005)

Biological target: NS1 (Influenza A virus (A/PR/8/34), UniProt P03496 P03496:1-230)
Assay: EMSA; 2 pM siRNA with 0-200 pM protein as printed; on ice 20 min; native 5% PAGE
Settings: tags: N-terminal His tag (pQE31, Qiagen); label: 5'-33P; 19-bp duplex with 3' dTdT overhangs

Chain of NS1 (P03496 whole entry, one chain of several): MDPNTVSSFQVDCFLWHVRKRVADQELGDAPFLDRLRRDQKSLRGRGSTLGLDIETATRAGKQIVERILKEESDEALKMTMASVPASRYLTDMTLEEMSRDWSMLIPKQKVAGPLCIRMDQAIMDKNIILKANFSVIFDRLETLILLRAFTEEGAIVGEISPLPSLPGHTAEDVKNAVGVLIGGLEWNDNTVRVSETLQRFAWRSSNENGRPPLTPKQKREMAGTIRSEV

B1: GL3 luciferase siRNA (dsRNA)
RNA 1: CUUACGCUGAGUACUUCGATT
RNA 2: UCGAAGUACUCAGCGUAAGTT
modifications: 3'-terminal TT of each strand are deoxynucleotides
- binding result: binds
